Assay results as given in patent publication US20220106400A1 (Bristol-Myers Squibb, published 2022).
“And” between values parts separate entries of the source, which are not always exact repeats. Equal values may be shown once. Read-outs that look alike come from different tables or passages of the source.

Columns and labels:
[1] = target: T1, human CD73 on human tumor cell lines (human, UniProt P21589 27-549); assay: cell-based or functional assay
T1 sequence (looked up): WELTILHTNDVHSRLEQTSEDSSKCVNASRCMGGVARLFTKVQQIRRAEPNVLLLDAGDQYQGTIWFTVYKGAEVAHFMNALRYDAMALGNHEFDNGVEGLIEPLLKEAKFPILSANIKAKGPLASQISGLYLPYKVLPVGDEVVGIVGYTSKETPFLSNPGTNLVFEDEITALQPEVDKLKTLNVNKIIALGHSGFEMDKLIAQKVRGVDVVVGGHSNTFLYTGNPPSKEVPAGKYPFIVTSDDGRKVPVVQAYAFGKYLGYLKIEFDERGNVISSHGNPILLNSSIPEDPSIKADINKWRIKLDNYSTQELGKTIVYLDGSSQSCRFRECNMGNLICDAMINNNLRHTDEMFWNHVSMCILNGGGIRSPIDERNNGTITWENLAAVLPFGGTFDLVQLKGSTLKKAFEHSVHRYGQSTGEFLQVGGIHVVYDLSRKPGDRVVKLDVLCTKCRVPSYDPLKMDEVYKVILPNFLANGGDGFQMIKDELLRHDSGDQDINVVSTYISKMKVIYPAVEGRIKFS

[2] = target: T1, human CD73 on human tumor cell lines; assay: cell-based or functional assay; remark: listed apart in the source
[3] = target: T2, N-terminal domain of hCD73 (residues 26-336 of human CD73), his-tagged (human, UniProt P21589 26-336); assay: SPR Biacore T100, mAb captured on protein A, N-hCD73-his analyte, 25 C
T2 construct: also called N-hCD73; N-hCD73-his
T2 sequence (looked up): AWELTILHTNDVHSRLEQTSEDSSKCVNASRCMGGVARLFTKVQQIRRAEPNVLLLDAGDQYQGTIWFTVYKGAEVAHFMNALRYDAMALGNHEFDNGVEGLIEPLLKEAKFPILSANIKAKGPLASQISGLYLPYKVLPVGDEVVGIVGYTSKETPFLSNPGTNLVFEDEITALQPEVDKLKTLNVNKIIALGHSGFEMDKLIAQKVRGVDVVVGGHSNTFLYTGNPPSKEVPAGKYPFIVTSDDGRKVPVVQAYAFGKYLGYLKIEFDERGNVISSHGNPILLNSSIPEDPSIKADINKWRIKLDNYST
Experimental: (§1) The affinity of the antibodies for human CD73 was measured to determine whether the change of the constant region affects them. The affinities were determined by Surface Plasmon Resonance (SPR) as follows. […] For these experiments, protein A (Pierce) was immobilized to a density of 3000-4000 RU on flow cells 1-4 of a CM5 sensor chip (GE Healthcare) using standard ethyl(dimethylaminopropyl) carbodiimide (EDC)/N-hydroxysuccinimide (NHS) chemistry, with ethanolamine blocking, in a running buffer of 0.01 M HEPES pH 7.4, 0.15 M NaCl, 3 mM EDTA, 0.005% v/v tween 20. Kinetic experiments were performed by first capturing antibodies (5-10 ug/ml) on the protein A surfaces using a 30 s contact time at 10 ul/min, with binding of 600, 200, 66.7, 22.2, 7.4, and 2.5 nM N-hCD73-his, using a 180 s association time and 360 s dissociation time at a flow rate of 30 ul/min. The running buffer for the kinetic experiments was 10 mM sodium phosphate, 130 mM sodium chloride, 0.05% tween 20, pH 7.1. The surfaces were regenerated after each cycle using two 30 s pulses of 10 mM glycine pH 1.5 at a flow rate of 30 μl/min. Sensogram data was double-referenced and then fitted to a 1:1 Langmuir model using Biacore T100 evaluation software v2.0.4, to determine the association rate constant (ka), the dissociation rate constant (kd), and the equilibrium dissociation constant (KD).

[4] = target: T2, N-terminal domain of hCD73 (residues …); assay: SPR Biacore T100, mAb captured on protein A, N-hCD73-his analyte, 25 C; separate experiment
Experimental: as §1

[5] = target: T1, human CD73 on human tumor cell lines; assay: cell-based or functional assay; remark: listed apart in the source
[6] = target: T1, human CD73 on human tumor cell lines; assay: cell-based or functional assay; remark: listed apart in the source
[7] = target: T3, full length extracellular domain of human-CD73 with C-terminal polyhistidine tag (residues 26-546) (human, UniProt P21589 26-546); assay: SEC, 1:1 molar mix 5.5 uM each
T3 construct: range 26-546; also called hCD73-his; CD73-his
T3 sequence (looked up): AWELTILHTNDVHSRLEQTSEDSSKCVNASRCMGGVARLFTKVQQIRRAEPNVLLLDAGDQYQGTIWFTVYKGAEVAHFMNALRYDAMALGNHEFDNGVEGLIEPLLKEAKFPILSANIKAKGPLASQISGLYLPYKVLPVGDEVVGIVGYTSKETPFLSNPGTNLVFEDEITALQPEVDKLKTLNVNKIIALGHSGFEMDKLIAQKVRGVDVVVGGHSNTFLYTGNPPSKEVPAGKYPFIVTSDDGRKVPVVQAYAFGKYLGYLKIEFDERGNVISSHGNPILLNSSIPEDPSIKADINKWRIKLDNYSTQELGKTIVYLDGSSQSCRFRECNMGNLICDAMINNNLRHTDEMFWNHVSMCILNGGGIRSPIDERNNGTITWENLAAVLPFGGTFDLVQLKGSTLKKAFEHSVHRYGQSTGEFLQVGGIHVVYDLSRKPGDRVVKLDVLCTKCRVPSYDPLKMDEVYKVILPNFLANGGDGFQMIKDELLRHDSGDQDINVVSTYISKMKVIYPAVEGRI
Experimental: The oligomeric state of CD73/antibody complexes were examined by size-exclusion chromatography coupled to an in-line multi-angle light scattering detector (SEC-MALS). Isocratic separations were performed on a Shodex PROTEIN KW-803 column connected to an Prominence Shimadzu UFLC in buffer containing 200 mM K₂HPO₄, 150 mM NaCl, pH 6.8, containing 0.02% Na azide (0.1 μm filtered) running at 0.5 mL/min. Samples were injected onto the column using a SIL-20AC Prominence Shimadzu autosampler, and data were obtained from three online detectors connected in series: a Prominence SPD-20AD diode array UV/vis spectrophotometer followed by a Wyatt miniDAWN™ TREOS Multi-Angle Light Scattering Detector then a Wyatt Optilab T-rEX Refractive Index Detector. Data were collected and analyzed using Astra (Wyatt) and Labsolutions (Shimadzu) software.
CD73.4 antibodies having the heavy chain constant regions set forth in Table 14 were also tested for formation of high molecular weight complexes by SEC-MALS and DLS experiments, as described in Example 3.

B1: CD73.10-IgG2-C219S (antibody)
heavy: QVQLVESGGGVVQPGRSLRLSCAASGFTFSNYGMHWVRQAPGKGLEWVAVIWYDESNKYYPDSVKGRFTISRDNSKNTLYLQMNSLRAEDTAVYYCARGGSSWYPDSFDIWGQGTMVTVSSASTKGPSVFPLAPCSRSTSESTAALGCLVKDYFPEPVTVSWNSGALTSGVHTFPAVLQSSGLYSLSSVVTVPSSNFGTQTYTCNVDHKPSNTKVDKTVERKSCVECPPCPAPPVAGPSVFLFPPKPKDTLMISRTPEVTCVVVDVSHEDPEVQFNWYVDGVEVHNAKTKPREEQFNSTFRVVSVLTVVHQDWLNGKEYKCKVSNKGLPAPIEKTISKTKGQPREPQVYTLPPSREEMTKNQVSLTCLVKGFYPSDIAVEWESNGQPENNYKTTPPMLDSDGSFFLYSKLTVDKSRWQQGNVFSCSVMHEALHNHYTQKSLSLSPG
light: not shown
notes: anti-CD73; also called CD73.10-IgG2CS; CD73.10-Vh-hHC-IgG2-C219S
[1]
  EC50 of CD73 internalization, Calu6, 2 h: 0.67 nM
  Ymax of CD73 internalization, Calu6, 2 h: 99 % of 100 nM 11F11
[2]
  % internalization, Calu6: 91%
  % internalization, H2030: 85%
  % internalization, H2228: 93%
  % internalization, HCC15: 91%
  T1/2 internalization, Calu6: 3 min
  T1/2 internalization, H2030: 3.3 min
  T1/2 internalization, H2228: 9.7 min
  T1/2 internalization, HCC15: 2.6 min
[3]
  Kd: 6.2 nM
  koff: 0.0014 s⁻¹
  kon: 220000 M⁻¹ s⁻¹
[4]
  Kd: 8.3 nM
  koff: 0.0018 s⁻¹
  kon: 220000 M⁻¹ s⁻¹

B2: CD73.4-IgG2-C219S (antibody)
heavy: QVQLVESGGGVVQPGRSLRLSCAASGFTFSNYGMHWVRQAPGKGLEWVAVILYDGSNKYYPDSVKGRFTISRDNSKNTLYLQMNSLRAEDTAVYYCARGGSSWYPDSFDIWGQGTMVTVSSASTKGPSVFPLAPCSRSTSESTAALGCLVKDYFPEPVTVSWNSGALTSGVHTFPAVLQSSGLYSLSSVVTVPSSNFGTQTYTCNVDHKPSNTKVDKTVERKSCVECPPCPAPPVAGPSVFLFPPKPKDTLMISRTPEVTCVVVDVSHEDPEVQFNWYVDGVEVHNAKTKPREEQFNSTFRVVSVLTVVHQDWLNGKEYKCKVSNKGLPAPIEKTISKTKGQPREPQVYTLPPSREEMTKNQVSLTCLVKGFYPSDIAVEWESNGQPENNYKTTPPMLDSDGSFFLYSKLTVDKSRWQQGNVFSCSVMHEALHNHYTQKSLSLSPG
light: not shown
notes: anti-CD73; also called CD73.4-IgG2CS; CD73.4-IgG2.3
[2]
  % internalization, Calu6: 88%
  % internalization, H2030: 89%
  % internalization, H2228: 94%
  % internalization, HCC15: 94%
  T1/2 internalization, Calu6: 6.5 min
  T1/2 internalization, H2030: 3.7 min
  T1/2 internalization, H2228: 13.8 min
  T1/2 internalization, HCC15: 3.1 min
[5]
  T1/2 internalization, Calu6: 36 min
  T1/2 internalization, NCI-H292: 16.6 min
  Ymax internalization, Calu6: 75.6%
  Ymax internalization, NCI-H292: 78.4%
[6]
  T1/2 internalization, Calu6: 22.4 min and 21.8 min
  T1/2 internalization, NCI-H292: 17.2 min and 17.1 min
[7]
  UV % Peak1 <12.9 min: 37%
  UV % Peak3 15.1-16.7 min: 7.7%
  UV % Peak4 16.7-19.3 min (free mAb): 28.6%
  UV % Peak5 >19.3 min: 2.9%
[3]
  Kd: 0.55 nM

B3: CD73.10-IgG2-C219S-IgG1.1 (antibody)
heavy: QVQLVESGGGVVQPGRSLRLSCAASGFTFSNYGMHWVRQAPGKGLEWVAVIWYDESNKYYPDSVKGRFTISRDNSKNTLYLQMNSLRAEDTAVYYCARGGSSWYPDSFDIWGQGTMVTVSSASTKGPSVFPLAPCSRSTSESTAALGCLVKDYFPEPVTVSWNSGALTSGVHTFPAVLQSSGLYSLSSVVTVPSSNFGTQTYTCNVDHKPSNTKVDKTVERKSCVECPPCPAPPVAGPSVFLFPPKPKDTLMISRTPEVTCVVVDVSHEDPEVKFNWYVDGVEVHNAKTKPREEQYNSTYRVVSVLTVLHQDWLNGKEYKCKVSNKALPSSIEKTISKAKGQPREPQVYTLPPSREEMTKNQVSLTCLVKGFYPSDIAVEWESNGQPENNYKTTPPMLDSDGSFFLYSKLTVDKSRWQQGNVFSCSVMHEALHNHYTQKSLSLSPG
light: not shown
notes: anti-CD73; also called CD73.10-IgG2CS-IgG1.1f; CD73.10-Vh-hHC-IgG2-C219S-IgG1.1f
[1]
  EC50 of CD73 internalization, Calu6, 2 h: 0.87 nM
  Ymax of CD73 internalization, Calu6, 2 h: 99 % of 100 nM 11F11
[2]
  % internalization, Calu6: 91%
  % internalization, H2030: 87%
  % internalization, H2228: 92%
  % internalization, HCC15: 91%
  T1/2 internalization, Calu6: 3.1 min
  T1/2 internalization, H2030: 4.3 min
  T1/2 internalization, H2228: 9.4 min
  T1/2 internalization, HCC15: 3 min
[3]
  Kd: 5.7 nM
  koff: 0.0014 s⁻¹
  kon: 240000 M⁻¹ s⁻¹
[4]
  Kd: 6.8 nM
  koff: 0.0016 s⁻¹
  kon: 230000 M⁻¹ s⁻¹

B4: 11F11 (antibody, human IgG2, kappa, V domains shown)
VH: QVQLVESGGGVVQPGRSLRLSCATSGFTFSNYGMHWVRQAPGKGLEWVAVILYDGSNKYYPDSVKGRFTISRDNSKNTLYLQMNSLRAEDTAVYYCARGGSSWYPDSFDIWGQGTMVTVSS
VL: DIQMTQSPSSLSASVGDRVTITCRASQGISSWLAWYQQKPEKAPKSLIYAASSLQSGVPSRFSGSGSGTDFTLTISSLQPEDFATYYCQQYNSYPLTFGGGTKVEIKR
notes: hybridoma derived anti-CD73 antibody, IgG2 constant region; also called 11F11(IgG2)
[1]
  EC50 of CD73 internalization, Calu6, 2 h: 0.58 nM
  Ymax of CD73 internalization, Calu6, 2 h: 98 % of 100 nM 11F11
[3]
  Kd: 1.6 nM
  koff: 0.00042 s⁻¹
  kon: 260000 M⁻¹ s⁻¹
[4]
  Kd: 0.56 nM
  koff: 0.00016 s⁻¹
  kon: 290000 M⁻¹ s⁻¹
